We go through 2 substances from paper PMC10667928.

The target in experiment [1] is Xiphophorus multilineatus melanocortin 4 receptor, mutant B1 allele (Mc4r B1) (X. multilineatus). As to the kind of experiment: FRET or BRET; FRET-FLIM (pulsed interleaved excitation) on fixed HEK293T cells, basal or apical membrane; first-named protomer with C-terminal eGFP (donor, written as binder), second with C-terminal mCherry (acceptor, written as target); donor/acceptor ratio 1:1 at transfection; lifetime-based FRET efficiency Eτ against donor-only samples.

Experiment [2] has as its target Xiphophorus multilineatus melanocortin 4 receptor, wild-type A allele (Mc4r A) (X. multilineatus). Described as above.
Experiment [3] concerns the target Xiphophorus multilineatus melanocortin 4 receptor, mutant B2 allele (Mc4r B2) (X. multilineatus). Description: FRET or BRET; FRET-FLIM (pulsed interleaved excitation) on fixed HEK293T cells, basal or apical membrane; first-named protomer with C-terminal eGFP (donor, written as binder), second with C-terminal mCherry (acceptor, written as target); donor/acceptor ratio 1:5 at transfection; lifetime-based FRET efficiency Eτ against donor-only samples. For orientation: BRET reads energy transfer from a luciferase to a nearby fluorophore.

The target in experiment [4] is Xiphophorus multilineatus melanocortin 4 receptor, mutant B1 allele (Mc4r B1) (X. multilineatus). The experiment is described as above.
For experiment [5], the target named is Xiphophorus multilineatus melanocortin 4 receptor, wild-type A allele (Mc4r A) (X. multilineatus). The description is as above.
The target of experiment [6] is Xiphophorus multilineatus melanocortin 4 receptor, mutant B2 allele (Mc4r B2) (X. multilineatus). Description: FRET or BRET; FRET-FLIM data of the fixed cells sorted by stoichiometry (<0.3, 0.3-0.5, 0.5-0.7, >0.7); dimerization grade by equation (8): β1AR as monomer baseline, CD28 at stoichiometry <0.3 as 100%.
Experiment [7] deals with Xiphophorus multilineatus melanocortin 4 receptor, mutant B1 allele (Mc4r B1) (X. multilineatus). The experiment is described as above.
Experiment [8] addresses Xiphophorus multilineatus melanocortin 4 receptor, wild-type A allele (Mc4r A) (X. multilineatus). Described as above.
In experiment [9] the target is human chimeric MC4R chim7 (named Mut in this study) (human) (UniProt P32245). Description: FRET or BRET; FRET-FLIM (pulsed interleaved excitation) on fixed HEK293T cells, basal or apical membrane; first-named protomer with C-terminal eGFP (donor, written as binder), second with C-terminal mCherry (acceptor, written as target); donor/acceptor ratio 1:5 at transfection; lifetime-based FRET efficiency Eτ against donor-only samples.

For “Xiphophorus multilineatus melanocortin 4 receptor, wild-type A allele (Mc4r A)”, the FRET efficiency Eτ was determined as 15.4% in experiment [1]; 12.7% in experiment [2]; 23.8% in experiment [3]; 21.6% in experiment [4]; 26.1% in experiment [5]. Also, the donor (eGFP) lifetime; donor-only 2.13 ns in experiment [2] is 1.85 ns; in experiment [5], 1.57 ns. Further, the dimerization grade at stoichiometry 0.3-0.5 in [6] was 28%; in experiment [7], 28%; in experiment [8], 26%. The dimerization grade at stoichiometry <0.3 amounted to 52% in experiment [6], 52% in experiment [7] and 76% in experiment [8].

As to “human MC4R wild-type (from UniProt P32245 1-332) (receptor)”, the FRET efficiency Eτ in experiment [9] is 19.6%.
